Measurements as given in patent publication US20090136510A1 (Eli Lilly, published 2009).

Key:
Recombinant RON-Fc [1] = target: T1, Recombinant RON-Fc (UniProt Q04912 25-957, limits assumed); assay: SPR (BIACORE 3000), RON-Fc immobilised, antibody injected; BIACORE 3000, RON-Fc immobilized
T1 construct: Immobilised on the BIAcore chip; also called RON proteins; not shown: Fc part
T1 sequence (looked up): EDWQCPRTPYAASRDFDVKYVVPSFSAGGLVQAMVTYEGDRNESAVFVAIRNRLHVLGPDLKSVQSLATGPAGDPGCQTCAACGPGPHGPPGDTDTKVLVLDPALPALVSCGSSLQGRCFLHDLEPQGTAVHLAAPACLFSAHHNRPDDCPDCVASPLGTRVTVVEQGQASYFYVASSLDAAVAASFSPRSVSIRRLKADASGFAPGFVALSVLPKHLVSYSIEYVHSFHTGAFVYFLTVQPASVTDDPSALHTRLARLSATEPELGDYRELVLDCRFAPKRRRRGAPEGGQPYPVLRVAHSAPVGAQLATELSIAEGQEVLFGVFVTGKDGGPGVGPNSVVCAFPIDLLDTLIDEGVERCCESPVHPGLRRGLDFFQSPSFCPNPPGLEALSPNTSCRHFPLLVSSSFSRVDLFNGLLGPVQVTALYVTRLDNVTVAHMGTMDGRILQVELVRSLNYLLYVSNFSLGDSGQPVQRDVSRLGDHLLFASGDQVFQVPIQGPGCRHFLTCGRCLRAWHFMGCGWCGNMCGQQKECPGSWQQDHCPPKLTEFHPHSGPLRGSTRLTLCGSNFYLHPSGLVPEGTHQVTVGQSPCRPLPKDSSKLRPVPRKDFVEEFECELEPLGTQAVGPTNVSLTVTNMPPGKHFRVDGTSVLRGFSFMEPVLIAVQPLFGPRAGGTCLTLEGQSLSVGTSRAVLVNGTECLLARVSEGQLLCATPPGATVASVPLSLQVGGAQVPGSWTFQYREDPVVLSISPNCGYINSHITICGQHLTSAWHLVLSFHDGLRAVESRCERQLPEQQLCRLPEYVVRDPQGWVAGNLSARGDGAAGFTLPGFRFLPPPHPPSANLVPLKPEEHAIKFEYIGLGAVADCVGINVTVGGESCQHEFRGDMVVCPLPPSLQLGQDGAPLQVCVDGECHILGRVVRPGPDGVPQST
Procedure: BIAcore Analysis. The binding kinetics of the antibodies to the RON proteins was determined by using a BIACORE 3000 (BIAcore, Piscataway, N.J.). Recombinant RON-Fc was immobilized onto a sensor chip, and antibody was injected at various concentrations. Sensorgrams were obtained and evaluated using BIA Evaluation 2.0 software to determine rate constants. The affinity constant, KD, was calculated from the ratio of the rate constants Koff/Kₒₙ. The “Kₒₙ, M⁻¹.S⁻¹” and “Koff, S⁻¹” rates of the interaction were used to determine the affinity (Kd, M) of the antibody/receptor interaction. […] For RON8 they were: 3.2e-11, 6.1e6 and 2.0e-4

Recombinant RON-Fc [2] = target: T1, Recombinant RON-Fc; assay: method and RON form not stated at this place; clone-selection value of paragraph 178; method and RON form not stated
[3] = target: T2, recombinant human RON protein (rh-RON protein, R&D Systems; recombinant human MSPR) (human, UniProt Q04912 25-571); assay: ELISA, blocking of MSP/RON interaction; ligand MSP
T2 construct: Bought soluble recombinant protein; also called rhu-RON protein; rh-MSPR; not shown: His tag on the recombinant protein
T2 sequence (looked up): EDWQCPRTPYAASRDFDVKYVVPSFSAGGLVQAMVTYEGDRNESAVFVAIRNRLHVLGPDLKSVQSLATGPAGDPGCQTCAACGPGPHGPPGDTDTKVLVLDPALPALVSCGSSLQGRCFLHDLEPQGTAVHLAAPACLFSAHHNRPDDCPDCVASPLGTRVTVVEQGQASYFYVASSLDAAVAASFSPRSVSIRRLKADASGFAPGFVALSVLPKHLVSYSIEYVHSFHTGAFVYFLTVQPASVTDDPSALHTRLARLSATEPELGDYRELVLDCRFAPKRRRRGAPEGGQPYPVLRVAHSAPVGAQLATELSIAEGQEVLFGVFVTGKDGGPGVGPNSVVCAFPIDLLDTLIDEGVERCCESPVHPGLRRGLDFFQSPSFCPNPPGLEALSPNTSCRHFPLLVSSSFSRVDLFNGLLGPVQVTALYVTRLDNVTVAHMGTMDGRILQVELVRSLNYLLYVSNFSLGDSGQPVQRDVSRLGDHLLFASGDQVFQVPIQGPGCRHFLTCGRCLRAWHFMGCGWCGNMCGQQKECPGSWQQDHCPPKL

Recombinant RON-Fc [4] = target: T1, Recombinant RON-Fc; assay: comparison of KD values; reference RON1
[5] = target: T2, recombinant human RON protein (rh-RON …); assay: ELISA, receptor immobilised on the plate (given as ED50)
Procedure: The ability of the anti-RON antibodies, RON6 and RON8, to bind to recombinant human RON receptor and to block the MSP/RON interaction were measured using ELISA. […] Using the same ELISA format, the two antibodies were tested for their ability to block MSP/RON interactions. The measured IC₅₀ values were 46 pM for RON6 and 62 pM for RON8.

[6] = target: T2, recombinant human RON protein (rh-RON …); assay: blocking ELISA: serially diluted RON8 pre-incubated with His-tagged recombinant human RON (rh-MSPR), added to plate-immobilised recombinant human MSP (the blocked ligand); bound RON detected with anti-His-tag HRP, absorbance 450 nm
Procedure: ELISA to Detect RON8 Blocking of MSP Binding to RON: ELISA plates were coated with 100 ng/well carrier-free MSP (R&D Systems) overnight at 4° C. on a rocker. The plate was washed once with 0.2% PBS/T and blocked for 2 hours at 37° C. with 150 μL/well 3% milk. A 15 μg/mL dilution of RON8 was prepared and serially diluted across another ELISA plate. To the RON8, was added 100 ng/well recombinant human MSPR (R&D Systems). The RON8/rh-MSPR complex was allowed to form for 2 hours at room temperature on a rocker. Next, the MSP-coated ELISA plate was washed once with 0.2% PBS/T and 100 μL of the RON8/rh-MSPR complex were added per well. After a 1.5-hour incubation at room temperature, the plate was washed five times with 0.2% PBS/T and incubated for 1 hour at room temperature with a 1:2,000 dilution of anti-His-tag HRP antibody (Sigma), which recognizes a His tag on the recombinant human MSPR protein. The plate was washed five times with 0.2% PBS/T and 100-AL substrate was added per well until a yellow color developed. The reaction was stopped with 50 μL of 1N H₂SO4 and the absorbance at 450 nm determined with a standard plate reader. The results of which are illustrated by FIG. 6A depict the solid-phase blocking characteristic of RON8. The ELISA data determined the IC50 value of RON8 needed to block the interaction of recombinant human RON protein to immobilized recombinant human MSP.

Binder | Kd (Recombinant RON-Fc [1]) | koff (Recombinant RON-Fc [1]) | kon (Recombinant RON-Fc [1]) | Kd (Recombinant RON-Fc [2]) | IC50 [3] | fold greater affinity than RON1 (Recombinant RON-Fc [4]) | EC50 [5] | IC50 [6] | IC50 (read off the curve) [6]
RON6 antibody (human anti-RON monoclonal antibody) (antibody, human IgG1, kappa, V domains shown, Fully human IgG from HuMAb mice) VH: QVQLVQSGPEVKKSGSSVKVSCKASGGTFSSDAITWVRQAPGQGLEWMGGIIPILGMANYAQKFQGRVTITADKSTNTAYMELSSLRSEDTAVYFCARVADYYGLGTYYWYFDLWGRGTLVTVSS VL: not shown | 0.041 nM | 8.6e-05 s⁻¹ | 2.2e+06 M⁻¹ s⁻¹ | 0.045 nM | 0.046 nM | 100 fold | 0.0042 nM |  | 
RON8 antibody (human anti-RON monoclonal antibody) (antibody, human IgG1, kappa, V domains shown, Fully human IgG from HuMAb mice) VH: EVQLVESGGGLVQPGGSLRLSCAASGFTFSSYLMTWVRQAPGKGLEWVANIKQDGSEKYYVDSVKGRFTISRDNAKNSLNLQMNSLRAEDTAVYYCTRDGYSSGRHYGMDVWGQGTTVIVSS VL: EIVLTQSPATLSLSPGERATLSCRASQSVSRYLAWYQQKPGQAPRLLIYDASNRATGIPARFSGSGSGTDFTLTISSLEPEDFAVYYCQQRSNWPRTFGQGTKVEIKR | 0.032 nM | 0.0002 s⁻¹ | 6.1e+06 M⁻¹ s⁻¹ | 0.023 nM | 0.062 nM | 100 fold | 0.0021 nM | 0.473 nM | ~0.5 nM
